PMC2757928
Values belong to the substance of their own block, whether it stands above or below them.

Experiments:
[1] = molecular target: IRF5 (residues 222-467) (human); experiment: ITC
[2] = molecular target: IRF5 (222-467) S457D (human); experiment: ITC
[3] = molecular target: IRF5 (222-467) S427D (human); experiment: ITC
[4] = molecular target: IRF5 (222-467) S421D (human); experiment: ITC
[5] = molecular target: IRF5 (222-467) S425D (human); experiment: ITC
[6] = molecular target: IRF5 (222-467) S430D (human); experiment: ITC
[7] = molecular target: IRF5 (222-467) S436D (human); experiment: ITC
[8] = molecular target: IRF5 (222-467) S430D (human); experiment: AUC

Kd [1]: 1640 nM
dH [1]: -14.4 kcal/mol
stoichiometry N [1]: 1.05
Kd [2]: 2410 nM
dH [2]: -10.3 kcal/mol
stoichiometry N [2]: 1.08
Kd [3]: 960 nM
dH [3]: -12.9 kcal/mol
stoichiometry N [3]: 0.98
Kd [4]: 2280 nM
dH [4]: -6.4 kcal/mol
stoichiometry N [4]: 1.03
Kd [5]: 710 nM
dH [5]: -13.3 kcal/mol
stoichiometry N [5]: 1.04
Kd [6]: 560 nM
dH [6]: -15.2 kcal/mol
stoichiometry N [6]: 1.02
Kd [7]: 670 nM
dH [7]: -6.8 kcal/mol
stoichiometry N [7]: 1.07
Substance: CBP (residues 2067-2112) (from UniProt Q92793 2067-2112) (domain or fragment)

stoichiometry N [8]: 2
Substance: IRF5 (222-467) S430D (domain or fragment)
